Results from patent US20210333284A1, “METHODS AND MATERIALS FOR LARGE-SCALE ASSESSMENT OF LIGAND BINDING SELECTIVITY OF G-QUADRUPLEX RECOGNITION USING CUSTOM G4 MICROARRAYS” (Purdue Research Foundation, priority 2020, published 2021).
Values belong to the molecule of their own block, whether it stands above or below them.

Assays:
[1] = test system: G4 sequences and non-G4 ssDNA controls on Design 3 microarray; experiment: Custom G4 DNA microarray, direct binding by fluorescence intensity; design: species or system human
Source text: Three Agilent DNA microarrays (TABLE 1) were designed, each with four identical sectors that contain ca.177,440 ssDNA 60-mers to examine G4-binding specificity. Arrays were designed with 9-73 replicates of each unique sequence to ensure statistical significance (TABLE 1). Each microarray contains different sets of G4 variants designed to examine several sequence parameters that affect G4 formation and binding specificity such as loop length (Design 1), loop sequence (Design 2), tail sequence (Design 2), and single nucleotide variants of six known G4s (Design 3). All microarrays include a set of 19 sequences from human telomeres and oncogene promoters known to form G4s with various topologies as positive controls (TABLE 2). Designs 2 and 3 have a set of 295 additional G4-forming sequences from the literature.^30 For the loop length variants, the length of the tails and loops of four different MYC G4 sequences (MYC Pu27, MYC Pu18ntd, MYC Pu22, and MYC Pu22 NMR mutant) was increased up to five times their length. Loop and tail sequences were varied using A, T, G, and C polynucleotide stretches and a subset of combinations. For the loop sequence variants, 4,096 sequences of the form NGGGNGGGNNGGGNGGGN (SEQ ID NO: 2) and 64 variants of the form GGGNGGGNGGGNGGG (SEQ ID NO: 1) were generated. For the tail variants, 256 versions of the major MYC G4 with all possible dinucleotide tails ([…] (SEQ ID NO: 3)) were generated. […]
The binding specificities of several molecules were evaluated. […] Binding of each molecule is measured by detection of fluorescence intensity at each of the microarray features. […] Cellular proteins were expressed as chimeric proteins containing GST, and binding for these proteins was detected using an anti-GST antibody conjugated with Cy5 (Materials and Methods). […] For Cy5-PDS, robust binding is observed at 1 μM, with fluorescence intensities ranging over 100-fold between strongest and weakest bound DNA features. The fluorescence-binding intensities of Cy5-PDS are proportional to the concentration of pyridostatin used). […]

[2] = test system: genomic G4 sequences (folded G4 structures); experiment: G4 microarray binding in potassium vs lithium; design: species or system human; conditions: GST-tagged proteins
Experimental: The binding specificities of several molecules were evaluated. Microarrays were preincubated with 100 mM potassium chloride to induce G4 formation. Binding of each molecule is measured by detection of fluorescence intensity at each of the microarray features. BG4 and pyridostatin were conjugated with Cy5. Cellular proteins were expressed as chimeric proteins containing GST, and binding for these proteins was detected using an anti-GST antibody conjugated with Cy5 (Materials and Methods). G4 Structures Fold on DNA Microarrays. To evaluate the utility of DNA microarrays to examine G4-binding specificity, a Cy5-labeled pyridostatin (Cy5-PDS), a small molecule known to bind broadly to G4 structures, was synthesized.^13 A Cy5 conjugated version of BG4 (Cy5-BG4), an antibody developed to bind G4s, was also obtained.^31 FIG. 1A, B presents replicate binding intensities to 15,491 DNA sequences on the Design 3 microarray using either Cy5-PDS or Cy5-BG4. For Cy5-PDS, robust binding is observed at 1 μM, with fluorescence intensities ranging over 100-fold between strongest and weakest bound DNA features. The fluorescence-binding intensities of Cy5-PDS are proportional to the concentration of pyridostatin used). […] Antibody binding to non-G4 features increases with higher concentrations, and in some cases non-G4 sequences are more strongly bound by Cy5-BG4 than G4 sequences, including multiple cytosine-rich negative control sequences. Inhibition of G4 Formation Inhibits Cy5-PDS and Cy5-BG4 Binding. Cy5-PDS and Cy5-BG4 binding under conditions that inhibit G4 formation was examined to evaluate if G4 structures form on the microarray and are required for binding. […] It is noted that many sequences, in addition to the oncogene G4 sequences, are capable of forming G4s. […] For Cy5-BG4, the decrease in binding was up to 270-fold for genomic G4 sequences, while binding to negative controls decreased up to 23-fold (FIG. 1D,). In a second experiment, Cy5-PDS binding following a primer extension reaction that produces dsDNA^24 was examined (see Materials and Methods), anticipating that dsDNA would predominate over G4 formation^13. […] 2,27,28
Microarrays were preincubated with a 100 mM potassium chloride solution for 1 h at RT to induce G4 formation. Protein binding microarray experiments were then performed as previously described.^23 Microarrays were blocked with 4% nonfat dry milk in a potassium phosphate buffer before incubation with proteins or small molecules. Expressed proteins were blocked with 4% nonfat dry milk, ssDNA, and BSA. For the validation experiments, microarrays were also treated with 100 mM lithium chloride to inhibit G4 formation. For experiments examining dsDNA, single-stranded DNA probes were made double-stranded using a primer complementary to a 24-mer constant sequence following the method described previously.^23,24 Double stranding efficiency was monitored using 4% Cy3-dCTP.
Protein or molecule-bound microarrays were scanned with the G5761A SureScan Dx Microarray Scanner System (Agilent) to detect a Cy5 signal at two laser settings (30 and 100 PMT) to ensure signal intensities were below saturation. Spot intensities from microarray images were extracted using the Agilent Feature Extraction Software and are reported as raw fluorescence units. All binding assays were performed at least twice, with high agreement between replicates (R>0.8). Microarrays with the fewest number of saturated spots were used for further analysis. Median intensity was then computed for probes containing identical sequence on each microarray. […]

- binding specificity, G4 vs non-G4 ssDNA sequences [1]: bind only G4 sequences
B1: DHX36: GST-tagged human DHX36/G4R1/MLEL1 helicase (protein, listed as Homo sapiens)
chain: MSYDYHQNWGRDGGPRSSGGGYGGGPAGGHGGNRGSGGGGGGGGGGRGGRGRHPGHLKGREIGMWYAKKQGQKNKEAERQERAVVHMDERREEQIVQLLNSVQAKNDKESEAQISWFAPEDHGYGTEVSTKNTPCSENKLDIQEKKLINQEKKMFRIRNRSYIDRDSEYLLQENEPDGTLDQKLLEDLQKKKNDLRYIEMQHFREKLPSYGMQKELVNLIDNHQVTVISGETGCGKTTQVTQFILDNYIERGKGSACRIVCTQPRRISAISVAERVAAERAESCGSGNSTGYQIRLQSRLPRKQGSILYCTTGIILQWLQSDPYLSSVSHIVLDEIHERNLQSDVLMTVVKDLLNFRSDLKVILMSATLNAEKFSEYFGNCPMIHIPGFTFPVVEYLLEDVIEKIRYVPEQKEHRSQFKRGFMQGHVNRQEKEEKEAIYKERWPDYVRELRRRYSASTVDVIEMMEDDKVDLNLIVALIRYIVLEEEDGAILVFLPGWDNISTLHDLLMSQVMFKSDKFLIIPLHSLMPTVNQTQVFKRTPPGVRKIVIATNIAETSITIDDVVYVIDGGKIKETHFDTQNNISTMSAEWVSKANAKQRKGRAGRVQPGHCYHLYNGLRASLLDDYQLPEILRTPLEELCLQIKILRLGGIAYFLSRLMDPPSNEAVLLSIRHLMELNALDKQEELTPLGVHLARLPVEPHIGKMILFGALFCCLDPVLTIAASLSFKDPFVIPLGKEKIADARRKELAKDTRSDHLTVVNAFEGWEEARRRGFRYEKDYCWEYFLSSNTLQMLHNMKGQFAEHLLGAGFVSSRNPKDPESNINSDNEKIIKAVICAGLYPKVAKIRLNLGKKRKMVKVYTKTDGLVAVHPKSVNVEQTDFHYNWLIYHLKMRTSSIYLYDCTEVSPYCLLFFGGDISIQKDNDQETIAVDEWIVFQSPARIAHLVKELRKELDILLQEKIESPHPVDWNDTKSRDCAVLSAIIDLIKTQEKATPRNFPPRFQDGYYS
modifications: GST tag
notes: GST-tagged human DHX36/G4R1/MLEL1 helicase
- effect of lithium chloride (inhibiting G4 formation) on protein binding [2]: weakened binding

B2: FANCJ: GST-tagged human BRCA1-binding helicase-like protein / Fanconi anemia group J protein (protein, listed as Homo sapiens)
chain: MSSMWSEYTIGGVKIYFPYKAYPSQLAMMNSILRGLNSKQHCLLESPTGSGKSLALLCSALAWQQSLSGKPADEGVSEKAEVQLSCCCACHSKDFTNNDMNQGTSRHFNYPSTPPSERNGTSSTCQDSPEKTTLAAKLSAKKQASIYRDENDDFQVEKKRIRPLETTQQIRKRHCFGTEVHNLDAKVDSGKTVKLNSPLEKINSFSPQKPPGHCSRCCCSTKQGNSQESSNTIKKDHTGKSKIPKIYFGTRTHKQIAQITRELRRTAYSGVPMTILSSRDHTCVHPEVVGNFNRNEKCMELLDGKNGKSCYFYHGVHKISDQHTLQTFQGMCKAWDIEELVSLGKKLKACPYYTARELIQDADIIFCPYNYLLDAQIRESMDLNLKEQVVILDEAHNIEDCARESASYSVTEVQLRFARDELDSMVNNNIRKKDHEPLRAVCCSLINWLEANAEYLVERDYESACKIWSGNEMLLTLHKMGITTATFPILQGHFSAVLQKEEKISPIYGKEEAREVPVISASTQIMLKGLFMVLDYLFRQNSRFADDYKIAIQQTYSWTNQIDISDKNGLLVLPKNKKRSRQKTAVHVLNFWCLNPAVAFSDINGKVQTIVLTSGTLSPMKSFSSELGVTFTIQLEANHIIKNSQVWVGTIGSGPKGRNLCATFQNTETFEFQDEVGALLLSVCQTVSQGILCFLPSYKLLEKLKERWLSTGLWHNLELVKTVIVEPQGGEKTNFDELLQVYYDAIKYKGEKDGALLVAVCRGKVSEGLDFSDDNARAVITIGIPFPNVKDLQVELKRQYNDHHSKLRGLLPGRQWYEIQAYRALNQALGRCIRHRNDWGALILVDDRFRNNPSRYISGLSKWVRQQIQHHSTFESALESLAEFSKKHQKVLNVSIKDRTNIQDNESTLEVTSLKYSTPPYLLEAASHLSPENFVEDEAKICVQELQCPKIITKNSPLPSSIISRKEKNDPVFLEEAGKAEKIVISRSTSPTFNKQTKRVSWSSFNSLGQYFTGKIPKATPELGSSENSASSPPRFKTEKMESKTVLPFTDKCESSNLTVNTSFGSCPQSETIISSLKIDATLTRKNHSEHPLCSEEALDPDIELSLVSEEDKQSTSNRDFETEAEDESIYFTPELYDPEDTDEEKNDLAETDRGNRLANNSDCILAKDLFEIRTIKEVDSAREVKAEDCIDTKLNGILHIEESKIDDIDGNVKTTWINELELGKTHEIEIKNFKPSPSKNKGMFPGFK
modifications: GST tag
- binding specificity, G4 vs non-G4 ssDNA sequences [1]: also bind other ssDNAs in addition to folded G4s
- effect of lithium chloride (inhibiting G4 formation) on protein binding [2]: weakened binding
